The source of these data is the DeepSol protein solubility set.

A short description of the data set: soluble on expression in E. coli; label from the status in PepcDB or PDB records.
Turning to “MERVPLLPRRFSARPQGNQEAQERTAVKCEQVRYAIQEVIGRGAFGEVSSAEVVGTRDLVAIKRVIHDGRLRQRELTLMRDHLGPNTQQGGVSSLDVGNGVGAHATSVTGSNGEEANGTTAIDGLESWNMPTIVPYHPCVVKLLDHFFASDPSGVQYLFMVMDYIPLDVRRLHHMFLRQREQQMPIILVKVIMFQLARALAFLHARGICHRDVKPNNILVDQETGVVKLCDFGSAKKMQAVGGEGPREKNVPYIFSRYYRAPELLLGSQYYHFHVDMWAFGCVLAELLCGKVLFKGSSSTMDQLVEIIKVLGKPSERELFALNPQSAGSALIRTWGDSHNASQLSPTPSGPLPSSNSANADYMQRRSAPRVKSLLWVEVLPPNTSQAALSLIEQLLRYTPEERLTSAEVLEHVFFDELFSDDARLPNGAPLPASMFQVTREEAEILPPWLLERMAAAEGVAKG”, the “soluble on expression in E. coli” value is “soluble”.

For the sequence “MQSPPGKPEIHKCRSPDKETFTCWWNPGTDGGLPTNYSLTYSKEGEKTTYECPDYKTSGPNSCFFSKQYTSIWKIYIITVNATNQMGSSSSDPLYVDVTYIVEPEPPRNLTLEVKQLKDKKTYLWVKWSPPTITDVKTGWFTMEYEIRLKPEEAEEWEIHFTGHQTQFKVFDLYPGQKYLVQTRCKPDHGYWSRWSQESSVEMPNDFTLKDRSRSHHHHHH”, the “soluble on expression in E. coli” value was “soluble”.

Turning to “MAHHHHHHMQDHMFAKSGVPANGAGLGQNYYTRDLITEVPTIIQIVPVSSEALATQRSPPKGTSDTFKISLDDVEPTAGWLSDRNNASLDICFMHSFGKCYGKIREKDPRTCHQIHVKRNVLDNLRKYYTNPQRNYFCRTMKANVTEKFAQVLSLLARRRIGLRYLEFRTEDIEVTAGSTEYEVQYRLWLVSDVEPQSRSRAQAANILTDNFISSSNLCWDFALTGRCCKGASCPDLHGHVAKALTKDRYVKAALAEMGKKDSLVPPTETTQPGKTPRVCQPSTSAPQQFPPPPPMPQQCASFIVSSPISPPYCFSSLPAASGMSAPSPNPTLAAFPLDMSSLQGTPCFLVDKGSDNVFRLITQSQFASFGNDAS”, the “soluble on expression in E. coli” value is “not soluble”.

Take “MMNSTNKLSVIIPLYNAGDDFRTCMESLITQTWTALEIIIINDGSTDNSVEIAKYYAENYPHVRLLHQANAGASVARNRGIEVATGKYVAFVDADDEVYPTMYETLMTMALEDDLDVAQCNADWCFRETGETWQSIPTDRLRSTGVLTGPDWLRMGLSSRRWTHVVWMGVYRRDVIVKNNIKFIAGLHHQDIVWTTEFMFNALRARYTEQSLYKYYLHNTSVSRLHRQGNKNLNYQRHYIKITRLLEKLNRNYADKIMIYPEFHQQITYEALRVCHAVRKEPDILTRQRMIAEIFTSGMYKRLITNVRSVKVGYQALLWSFRLWQWRDKTRSHHRITRSAFNLRLEHHHHHH”: the “soluble on expression in E. coli” value was “not soluble”.

For the sequence “MGSDKIHHHHHHMTKKRIFVTGASGCIGHYISETLIQETDYELYLLVRNPSKLQVDTQIRPGITVLQGDMQNISQFADLLSTIDIAVLTATAWGGEQTFDINVSKTIELLNLLDPDRCQQVIYFSTASVLDSHNQPLKEAGEIGTDYIRSKYECLHKISELGIASKITTVFPTLVLGGDSKKPYSHLTSGIPEVTKYVNLIRFLQADGSFHFIHGKDIASVVKYLIVNPPQENTSRRLVLGQKRLTANQAIEEVCTYLGKKISFRIPLSLSLANLIIAVFRIQMADWDRFCMNYRHFTYDTVINPDSFGLPNYCATMSDVLKISGVDSSHQ”, the “soluble on expression in E. coli” value is “not soluble”.

Regarding “MNVDLHCHSTASDGALSPTALVARAHEYGVRVLSLTDHDTLEGLEEARTAAHSLGMQLVNGVELSCTWGGATIHVLGYGFDTQAPALTEAIARLHEGRWLRAEEISRKLAIKGMPGALEGARAIQQALGDSGNAPARPHFADFMVRAGFVKDRAEAFRKWLGAGKLGDVKQHWPTLEDTVATLRASGAWVSLAHPSHYDFTRSKRRKLVGDFVQAGGHAIEVVNGMQPADQVGTLAILAREFGLLVSAGSDFHGPGNWGEIGTYRPVPEDLPPLWCRFKHEQPTAAV”, the “soluble on expression in E. coli” value was “not soluble”.

For “MAHHHHHHMPRSIRVRHGDPDVAEGALTIEVPSSPDADNKAVGDARTPVASLGASSAFFTTYSTVSGDVAHPCANIASGAAPSDEVSPLTSALFMSVDSTPLASSCATKTAASLVNVRSFNSSATVVSVELPNLQSEHAAMTATSCFATRSRDTEAPAAAAAASATNPPPLRHPLGSAPIEGGGGQTQLAGEADTPVQDRTAAPSSSPLMAKASVSASFSGDSSKRCSHTVQSGLSDDLQLTQTTCYLPLLGSAGSREVQRSGDDIDARWVAERESVPAAEPARTTVGNDSFPAEGSEGAMVATTQSASTDVRAAACTVPASNISNTVAATATDVAAPLCPKFEVLATVPAPLVGRVPIRIHWCCAAHWRAVQRTERGAQWAVDGAPADVYCVPAHRNAKRERRSLSASCVEAKSESERGGRSFSGTGENTAWLRDAAGEVKPQHWEVRALSSAVGAPGSTLYDDSNYDAEHEKHGSLKTRSGLPHVHSHSCTDMLTCEFCGHAVERYHSEDCDDEASEASTSMTQTGRACSAPPGRFQDCHGCASAEARSLSSSKIVAFRSNQPSILTPQLLLSSSESAETTVDLDMSGAISSVDVPSWSDSAREEALMAAVALLQ”, the “soluble on expression in E. coli” value was “not soluble”.

With “MISEKPAAKRIQSGGCAIHCQDCSISQLCIPFTLNESELDQLDQIIERKKPIQKGQELFKAGDELRSLYAIRSGTIKSYTITEQGDEQITAFHLAGDLVGFDAITGDQHPSFAQALETSMVCEIPYEILDDLSGKMPKLRQQIMRLMSNEIKGDQEMILLLSKKNAEERLAAFLYNLSTRFSQRGFSPREFRLTMTRGDIGNYLGLTVETISRLLGRFQKSEILSVKGKYITILNHAELMELAGVSKESK”, the “soluble on expression in E. coli” value is “soluble”.

With “PIAQIHILEGRSDEQKETLIREVSEAISRSLDAPLTSVRVIITEMAKGHFGIGGELASKVRR”, the “soluble on expression in E. coli” value is “soluble”.

On to “MAHHHHHHMPQVDLVKLLQICVNGALAAQQYILLDLIQLRSLEVSRRDVCIADLDQQEIARLRARLKAAVSVDVKGKLEYKEGGSVDDLVTTADVVTQGLMERLLAEAFPDTPFTIIGEEEATTTDAIKIQVERCVEAFRDVNAVAPLQKELEAHASSDSRHVSASTVEELRARVGVFIDPIDATSCFVDGTWGAPMTLVGITVDGVPVAGVSNRFFYSTVDDLTSGGNAGCTGLSYVWNDPSAGPFIVHEGRLATPLWSLGRKTTSNLAMLRVIRSGTTSNKRFEQLLARLQPVEPRSARGAGNKLMLLVVSMLAASDGAAAAACDVFLAPPNSISKWDTCAAHAFLLALGGDMRTLRGELIRYPLRGTTNLKTLPDGVVGLTRWSMTEGLRRLGWQ”, for which the “soluble on expression in E. coli” value is “not soluble”.

For “MGSDKIHHHHHHMSADTLFPKLDIPATIAAGPGPGNTDARVLAAFSGAGLADHMHGDVLRGMVECKLMLRRIWGTDNIHTFGVAGTGWSGLDVMFSAVMPGDKVVVFTNGTFSGIDGLTVRMKAATAEELAANPLDPRPASVVIVDIPHGQSVTGEIVETALAEHKPKWAAMAHWETGSGRINDIAGFSAACERHDVMGLVDAVSSLGVEDFRIDDFPGVHGWASCPQKGICCLPLTYAPVSFTDRYIQTLRATGTRSFVHHPILEARHWGVIEGKDVDKGTYHRTHSAYAVAAFHEALRITLQQGVANRAKDYAYHEAALRRAVEALGCEVTSNMTSLVVLNLPGDLRGREMELVQNCRARNFGIWPTLSAPVQVRIGILNLLSRAAVTDIVTRFAEAIRELGGAGDEATALAALDAHYDNAIAAE”, the “soluble on expression in E. coli” value is given as “not soluble”.

Take “MGSDKIHHHHHHMSAVTESVLESIISPVTMSEFLEEYWPVKPLVARGEVERFTSIPGFEKVRTLENVLAIYNNPVMVVGDAVIEESEGITDRFLVSPAEALEWYEKGAALEFDFTDLFIPQVRRWIEKLKAELRLPAGTSSKAIVYAAKNGGGFKAHFDAYTNLIFQIQGEKTWKLAKNENVSNPMQHYDLSEAPYYPDDLQSYWKGDPPKEDLPDAEIVNLTPGTMLYLPRGLWHSTKSDQATLALNITFGQPAWLDLMLAALRKKLISDNRFRELAVNHQSLHESSKSELNGYLESLIQTLSENAETLTPEQIFQSQDSDFDPYQSTQLVFRQLLTSYKF”: the “soluble on expression in E. coli” value is listed as “soluble”.

For the sequence “MLNKLMWLTGKAQEDWIEKILHLRQKIWPDYQRIKNDTLFKLYSHYPLYQWLSHYNGEVVAVINSLPVALDQSLDNLPQEGLNWVLSHLESTTPLTQSNYLAAVSVTVNPAYQRLGLSKLLLNRLKASAQEAQYKALIVPARPSQKENY”, the “soluble on expression in E. coli” value is on record as “not soluble”.
